Reference: patent US20230087785A1, “Leucine-Rich Repeat Kinase 2 Allosteric Modulators” (VIB VZW, priority 2020, published 2023)

Biological target: T1, LRRK2(G2019S) (Homo sapiens, UniProt Q5S007, G2019S/M2397T/R50H)
T1 construct: SF tag (FLAG + Twin-Strep); expressed in transfected cells; host or cells: HEK 293T
Experiment: In cellulo phospho-Rab / LRRK2 autophosphorylation assay in HEK293T cells
Assay type: cell-based
Conditions: HEK 293T cells co-expressing LRRK2(G2019S), Rab29 and Nb-GFP; for influence on LRRK2 kinase activity compared to the controls: Western blot
Description: (FIGS. 2A-2C) LRRK2(G2019S) and its effector Rab29 were overexpressed together with GFP-fused Nbs (“Fluobody”) in HEK293T cells. A negative control, where no Nb is overexpressed (“No Nb”) is also included. […] In rows labeled “pLRRK2”, LRRK2 pS1292 levels are determined by Western Blot using a site-specific anti-pLRRK2(pS1292) antibody (Abcam, ab203181) (shown at different times of development). In the rows labeled “pRAB10”, endogenous pT72-Rab10 levels are determined by Western Blot using the MJFF/Abcam antibody MJF-R21 (Abcam, ab230261) (shown at different times of development). The three lower rows contain controls of LRRK2 (rat anti-LRRK2, 24D8), Fluobody (rat anti-GFP) and Rab10 (rabbit anti-Rab10) expression levels. (FIG. 2D) Based on the results of panels (FIGS. 2A-2C) the Nbs can be divided into 4 functional groups, with group 1: Nbs that inhibit both LRRK2 autophosphorylation and Rab10 phosphorylation in cells; group 2: Nbs that inhibit only Rab10 phosphorylation; group 3: Nbs that activate LRRK2 kinase activity; group 4: Nbs that have no consistent/clear effect on LRRK2 kinase activity.
To assess the influence of the Nbs on LRRK2 kinase activity we monitored two physiologically and disease relevant activities of LRRK2: phosphorylation of the endogenous substrate Rab10 at position T72 and LRRK2 autophosphorylation at position S1292 [25-30]. […] In our cellular assay we thus co-expressed LRRK2(G2019S), Rab29 and the different Nb-GFP fusions in HEK 293T cells (FIG. 2a-c).
HEK 293T cells were cultured in DMEM (supplemented with 10% Fetal Bovine Serum, […] L-Glutamine and 0.5% Pen/Strep). For the assay, the cells were seeded onto six-well plates and transfected at a confluency of 50-70% with the individual Nb-GFP expression constructs, SF-tagged LRRK2(G2019S) and FLAG-HA Rab29 using a self-made polyethylenimine (PEI)-based transfection reagent. After 48 hrs cells were lysed in lysis buffer [30 mM Tris-HCL (pH7.4), 150 mM NaCl, 0.5% Nonident-P40, complete protease inhibitor cocktail, phosphatase inhibitor cocktail II & III (all Sigma)]. Lysates were cleared by centrifugation at 10,000×g and adjusted to a protein concentration of 1 μg/μl in 1× Laemmli Buffer. Samples were subsequently subjected to SDS PAGE and Western Blot analysis to determine LRRK2 pS1292 and Rab10 T72 phosphorylation levels, as described below. Total LRRK2 and Rab10 levels were determined as a reference.
For western blot analysis, protein samples were separated by SDS-PAGE using NuPAGE 10% Bis-Tris gels (Invitrogen) and transferred onto PVDF membranes (Thermo Fisher). To allow simultaneous probing for LRRK2 on the one hand and Rab and the Nb-GFP fusions on the other hand, membranes were cut horizontally at the 140 kDa MW marker band. After blocking non-specific binding sites with 5% non-fat dry milk in TBST (1 h, RT) (25 mM Tris, pH 7.4, 150 mM NaCl, 0.1% Tween-20), membranes were incubated overnight at 4° C. with primary antibodies at dilutions specified below. Phospho-specific antibodies were diluted in TBST/5% BSA (Roth GmbH). Non-phospho-specific antibodies were diluted in TBST/5% non-fat dry milk powder (BioRad). Phospho-Rab10 levels were determined by the site-specific rabbit monoclonal antibody anti-pRAB10([…]) (Abcam, ab230261) and LRRK2 autophosphorylation was determined by the site-specific rabbit monoclonal antibody anti-pLRRK2(pS1292) (Abcam, ab203181), both at a dilution of 1:2,000. Total LRRK2 levels were determined by the in-house rat monoclonal antibody anti-pan-LRRK2 (clone 24D8; 1:10,000). Total Rab10 levels were determined by the rabbit monoclonal antibody anti-RAB10/ERP13424 (Abcam, ab181367) at a dilution of 1:5,000. Nb-GFP fusion proteins were detected using the rat monoclonal antibody anti-GFP (clone 3H9, ChromoTec) at a dilution of 1:2,000. For detection, goat anti-rat IgG or anti-rabbit IgG HRP-coupled secondary antibodies (Jackson ImmunoResearch) were used at a dilution of 1:15,000 in TBST/5% non-fat dry milk powder. […]

T1 sequence (Q5S007 whole entry R50H/G2019S/M2397T): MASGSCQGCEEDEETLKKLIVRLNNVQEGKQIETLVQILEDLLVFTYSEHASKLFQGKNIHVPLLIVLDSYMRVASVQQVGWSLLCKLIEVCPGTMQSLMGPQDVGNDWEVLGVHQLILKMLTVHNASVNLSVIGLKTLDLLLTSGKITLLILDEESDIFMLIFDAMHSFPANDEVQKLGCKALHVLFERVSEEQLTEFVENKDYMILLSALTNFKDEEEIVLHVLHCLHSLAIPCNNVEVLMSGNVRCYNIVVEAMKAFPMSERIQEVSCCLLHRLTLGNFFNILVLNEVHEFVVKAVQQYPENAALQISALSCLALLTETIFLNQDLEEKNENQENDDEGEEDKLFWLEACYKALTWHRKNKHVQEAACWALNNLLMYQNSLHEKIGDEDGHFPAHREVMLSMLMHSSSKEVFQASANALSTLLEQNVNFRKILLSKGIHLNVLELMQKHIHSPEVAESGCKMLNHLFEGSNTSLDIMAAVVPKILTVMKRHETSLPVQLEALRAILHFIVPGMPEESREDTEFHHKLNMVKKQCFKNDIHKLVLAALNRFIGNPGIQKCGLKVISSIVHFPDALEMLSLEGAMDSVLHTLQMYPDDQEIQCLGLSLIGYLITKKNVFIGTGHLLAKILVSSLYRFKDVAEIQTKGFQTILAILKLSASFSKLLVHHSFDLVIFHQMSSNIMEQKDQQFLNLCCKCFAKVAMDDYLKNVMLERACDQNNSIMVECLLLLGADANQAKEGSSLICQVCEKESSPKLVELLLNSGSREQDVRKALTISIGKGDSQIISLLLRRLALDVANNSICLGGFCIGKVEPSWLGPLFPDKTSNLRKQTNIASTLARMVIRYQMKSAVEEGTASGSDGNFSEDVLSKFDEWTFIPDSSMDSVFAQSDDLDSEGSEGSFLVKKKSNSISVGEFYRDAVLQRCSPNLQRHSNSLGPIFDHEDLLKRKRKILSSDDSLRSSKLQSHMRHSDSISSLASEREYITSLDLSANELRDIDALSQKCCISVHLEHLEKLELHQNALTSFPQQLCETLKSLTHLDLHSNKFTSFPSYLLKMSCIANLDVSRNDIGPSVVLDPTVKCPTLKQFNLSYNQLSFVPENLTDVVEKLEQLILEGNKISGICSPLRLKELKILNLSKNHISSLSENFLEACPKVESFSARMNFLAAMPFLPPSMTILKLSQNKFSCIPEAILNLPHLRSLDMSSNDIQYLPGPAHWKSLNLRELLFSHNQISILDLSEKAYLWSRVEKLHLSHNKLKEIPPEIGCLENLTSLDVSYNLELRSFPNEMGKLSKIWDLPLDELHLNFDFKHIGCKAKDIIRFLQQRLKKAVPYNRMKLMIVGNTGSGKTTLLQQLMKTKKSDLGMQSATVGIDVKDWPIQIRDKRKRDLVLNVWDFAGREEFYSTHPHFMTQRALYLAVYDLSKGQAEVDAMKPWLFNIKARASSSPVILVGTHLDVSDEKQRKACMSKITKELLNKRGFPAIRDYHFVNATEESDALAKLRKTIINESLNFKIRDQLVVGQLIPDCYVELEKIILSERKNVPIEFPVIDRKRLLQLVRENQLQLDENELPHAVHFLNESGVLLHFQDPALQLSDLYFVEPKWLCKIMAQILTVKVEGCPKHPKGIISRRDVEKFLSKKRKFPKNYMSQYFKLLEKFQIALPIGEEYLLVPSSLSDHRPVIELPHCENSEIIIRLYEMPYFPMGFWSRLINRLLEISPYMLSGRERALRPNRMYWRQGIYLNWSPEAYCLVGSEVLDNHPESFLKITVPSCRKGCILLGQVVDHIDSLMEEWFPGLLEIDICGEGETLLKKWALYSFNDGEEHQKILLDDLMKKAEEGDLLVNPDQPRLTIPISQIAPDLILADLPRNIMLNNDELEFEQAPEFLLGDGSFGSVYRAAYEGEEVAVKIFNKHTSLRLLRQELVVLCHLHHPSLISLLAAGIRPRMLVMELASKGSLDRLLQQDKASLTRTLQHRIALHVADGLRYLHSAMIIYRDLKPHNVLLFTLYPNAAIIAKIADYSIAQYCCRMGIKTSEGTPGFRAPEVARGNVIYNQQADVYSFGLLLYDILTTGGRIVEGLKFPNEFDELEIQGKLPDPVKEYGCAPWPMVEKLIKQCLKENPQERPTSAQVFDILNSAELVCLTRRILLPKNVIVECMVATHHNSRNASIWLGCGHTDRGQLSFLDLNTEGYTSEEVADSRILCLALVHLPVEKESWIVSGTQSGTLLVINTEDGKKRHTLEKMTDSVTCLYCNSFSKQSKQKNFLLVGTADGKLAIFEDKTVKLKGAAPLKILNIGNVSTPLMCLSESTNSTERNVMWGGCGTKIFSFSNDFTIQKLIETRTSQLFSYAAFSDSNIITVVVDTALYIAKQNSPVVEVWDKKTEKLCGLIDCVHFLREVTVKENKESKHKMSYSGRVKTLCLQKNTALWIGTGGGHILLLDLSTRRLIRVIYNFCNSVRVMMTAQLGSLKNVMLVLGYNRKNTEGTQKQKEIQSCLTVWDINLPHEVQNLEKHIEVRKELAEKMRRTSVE

Rab10 phosphorylation at position T72 (endogenous Rab10)	Molecule	influence on LRRK2 kinase activity compared to the controls	LRRK2 autophosphorylation at position S1292
	Nb10: LRRK2-specific Nanobody, SEQ ID NO: 15 (protein, Nanobody CA13599) VHH: MAQVQLVESGGGLVQPGGSLRLSCAASGSIFSIYAMGWYRQAPGKQRELVAAITSGGDTNYADSVKGRFTISRDNAKNTVYLQMNSLKPEDTAVYYCNADHTPAGTFQTFDYWGQGTQVTVSS	no influence on LRRK2 kinase activity	
	Nb37: LRRK2-specific Nanobody, SEQ ID NO: 14 (protein, Nanobody CA14131) VHH: MAQVQLVESGGGLVQPGGSLRLSCAASGSVFSTNTMAWFRQAPGKQREWVGGITPGGFTNYINSVKGRFTISRDNANNTIYLQMSSLRPEDTAVYYCNTLSRMALWGQGTQVTVSS	no influence on LRRK2 kinase activity	somewhat stronger inhibitory effect towards LRRK2 autophosphorylation
	Nb3: LRRK2-specific Nanobody, SEQ ID NO: 11 (protein, Nanobody CA12614) VHH: MAQVQLVESGGGLVQPGGSLRLSCAASGSIFRRNAMGWYRQVTGKERELVAGITSGGYTNYRDFVKGRFTISRDNAKNTVYLQMNNLKPEDTAVYYCNLLSEMLQTVWGQGTQVTVSS	no influence on LRRK2 kinase activity	somewhat stronger inhibitory effect towards LRRK2 autophosphorylation
inhibit Rab10 phosphorylation	Nb41: LRRK2-specific Nanobody, SEQ ID NO: 12 (protein, Nanobody CA14136) VHH: MAQVQLVESGGGLVQAGGSLRLSCEASVRTFSFYSMGWFRQAPGKEREFVAAIRWTAGSTSYADIVKGRFTISRDNGKNTVVLQMNSLEPEDTGVYYCAAQRGYLVEAASREYDYWGQGTQVTVSS	strongly decreased LRRK2 autophosphorylation and/or Rab10 phosphorylation	inhibiting S1292 phosphorylation at a lesser extent
	Nb9: LRRK2-specific Nanobody, SEQ ID NO: 17 (protein, Nanobody CA13598) VHH: MAQVQLVESGGGLVQPGGSLRLSCAASGSIFSINAMGWYRQAPGKQRELVAAITSGGRTNYADSVRGRFTISRDHAKNTVYLQMNSLKPEDTAVYYCNAGDWQTMYDYWGQGTQVTVSS	no influence on LRRK2 kinase activity	
	Nb13: LRRK2-specific Nanobody, SEQ ID NO: 16 (protein, Nanobody CA13602) VHH: MAQVQLVESGGGLVQPGGSLRLSCAASGSGFSIYAMGWARQAPGRQRELVAAITSGGSTNYADSVKGRFTISRDNAKNTVYLQMNSLKPEDTAVYYCNADITVVAGSTYDYWGQGTQVTVSS	no influence on LRRK2 kinase activity	
	Nb31: LRRK2-specific Nanobody, SEQ ID NO: 13 (protein, Nanobody CA13620) VHH: MAQVQLVESGGGLVQAGGSLRLSCATSGLTFGTYAMAWFRQAAEKEREFVAFISGRGGYRDYADSVKGRLTIFRDNAKNNAKNTVYLQMNNLKPEDTAVYYCAARQGSPVRSKEEYNNWGQGTQVTVSS	no influence on LRRK2 kinase activity	
	Nb28: LRRK2-specific Nanobody, SEQ ID NO: 18 (protein, Nanobody CA13617) VHH: MAQVQLVESGGGLVQAGGSLRLSCAASGIIFHWYDMDWYRQAPGKQRELVATITTGGRADYADFVKGRFSISRDNAKTTVYLQMNSLKPEDTAVYYCSFQDHVLRRWGQGTQVTVSS	significant increase of LRRK2 kinase activity	
